Here are results for 17 molecules from patent US20230167188A1 (BIOLOJIC DESIGN, published 2023).

In general, EC50 refers to the concentration at which the effect is half-maximal.

Substitutions are numbered along the chain they refer to. Numbers in names are those of the source.

Assay [1] concerns the target T1, recombinant human TNFR2 with 6×his tag (human, UniProt P20333 23-257, limits assumed).
T1 construct: Bought (Reprokine, Israel); also called TNFR2-His; hTNFR2-His; not shown: 6xHis tag
T1 sequence (looked up): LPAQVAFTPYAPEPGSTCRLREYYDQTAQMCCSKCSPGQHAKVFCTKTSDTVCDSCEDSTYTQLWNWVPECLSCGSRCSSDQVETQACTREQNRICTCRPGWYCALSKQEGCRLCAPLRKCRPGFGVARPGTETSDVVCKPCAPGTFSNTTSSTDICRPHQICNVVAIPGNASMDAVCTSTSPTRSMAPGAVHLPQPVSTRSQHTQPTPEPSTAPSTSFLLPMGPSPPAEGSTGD
The assay is described as follows: ELISA, IgG coated, hTNFR2-His titrated, anti-His-HRP. How it is done: (§1) IgG binding affinity to TNFR2 was examined by ELISA. 96 well plates (Greiner Bio-One high binding) were coated with (50 ng/well) of the analyzed antibody and incubated overnight at 4° C. The plates were then washed three times with 300 μl PBS buffer containing 0.05% Tween 20 (PBS-T), blocked with 300μ PBS-T supplemented with 1% to 2% BSA, and incubated for 1 hour at room temperature. Antibodies-coated plates were washed three times with 300 μl PBS-T and incubated with serial dilutions of test ligand hTNFR2-His (Reprokine, Israel) in a final volume of […] for 1-2 hours. Plates were then washed three times with 300 μl PBS-T and incubated with 50 μl anti-HIS-HRP (Santa Cruz Biotechnology, USA, SC-8036HRP) conjugate that was diluted 1:250 in PBS. After an additional wash step of six washes, the reaction was developed with […] tetramethylbenzidine (TMB) reagent (Southern biotech, USA), and stopped with […] 0.5N H₂SO₄. Detection was done on a Synergy LX BioTek (BioTek, USA) plate reader with an absorbance filter set to […]. The binding affinity was determined by fitting the data to a specific binding non-linear regression model on Prisma 8 GraphPad software.
(§2) To test binding affinity of clones reformatted as IgG1 and IgG1LALA to TNFR2, an ELISA EC₅₀ binding experiment was conducted for each antibody.

Assay [2] has as its target T1, recombinant human TNFR2 with 6×his tag. The assay is described as follows: ELISA, IgG coated, soluble TNFR2-His titrated. The procedure: as §1, §2
Assay [3] has the same target. The assay is described as follows: yeast surface display, TNFR2-His titrated, flow cytometry MFI. How it is done: To determine the effective concentration₅₀ (EC₅₀) of TNFR2 binding to yeast scFv or Fab clones (EC₅₀— TNFR2 binding), specific clones were labeled at TNFR concentrations ranging from 0.1 nM to 1000 nM and analyzed on an FACS. Median fluorescence intensity (MFI) was determined for each TNFR2 concentration and EC₅₀ (TNFR2 binding) was calculated using Prisma 8 GraphPad (GraphPad, San Diego, USA) software.
A general note: Flow cytometry measures light scatter and fluorescence of single cells or particles in a stream.

Assay [4] addresses T2, human TNFR2 (residues 1-461) expressed on HEK-TNFR2 reporter cells (human, UniProt P20333 23-461).
T2 sequence (looked up): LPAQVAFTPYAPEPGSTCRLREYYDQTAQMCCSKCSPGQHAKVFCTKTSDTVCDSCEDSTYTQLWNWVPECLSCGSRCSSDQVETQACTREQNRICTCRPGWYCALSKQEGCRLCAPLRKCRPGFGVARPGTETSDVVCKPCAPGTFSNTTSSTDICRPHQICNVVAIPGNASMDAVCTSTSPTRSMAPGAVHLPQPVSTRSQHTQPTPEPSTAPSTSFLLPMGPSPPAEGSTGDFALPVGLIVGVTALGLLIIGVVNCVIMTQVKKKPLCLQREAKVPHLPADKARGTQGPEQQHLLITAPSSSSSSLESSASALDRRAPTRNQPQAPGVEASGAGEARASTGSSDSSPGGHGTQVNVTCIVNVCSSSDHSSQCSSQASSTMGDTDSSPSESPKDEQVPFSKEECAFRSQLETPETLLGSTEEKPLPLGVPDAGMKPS
Kind of assay: cell-based or functional assay.

B1: BDG30.080 (antibody, human IgG1, kappa, V domains shown)
VH: EVQLVESGGGLVQPGGSLRLSCAASGFNIRAMYIHWVRQSPGKGLEWVADIDPTNGDTRYADSVKGRFTISADTSKNTAYLQMNSLRAEDTAIYYCTREGQDGYNAFDKWGQGTLVTVSS
VL: DIQMTQSPILLSASVGDRVTITCRASQDVSTAVAWSQQRTNGSPRLLIYSASSLYSGVPSRFSGSRSGTDFTLTISSLQPEDIADYYCQQHRYTPPTFGAGTKVEIKR
notes: Human IgG1; also called IgG of CID_229
Consider B1, for which the results for the EC50 in assay [1] and in assay [2] were 66.3 nM and 66 nM, respectively.

B2: CID_324 (scFv)
scFv: EVQLVQSGPELKKPGASVKVSCKGSGYTFTDLGINWVRQAPGQGLEWMGWINTHTGEPFYADDFKGRFVFSLDTSVSTAYLQISSLKAEDTAVYYCTRDHPLGLDYWGQGTLVTVSSDIQVTQSPSSLSASVGDRVTITCITSQSVDVNGVSYLNWYQQKPGKVPKFLIYKASRLRSGVPSRFSGSGSGTDFTLTISSLQPEDVATYYCQQSREDPYTFGQGTKVEIK
B2: the EC50 in assay [3] was determined as 5.6 nM.

B3: CID_323 (scFv)
scFv: B2 scFv with G24A, I34M, E57M, T97A, R174N, S177P
Consider B3, for which, in assay [3], the EC50 was 5.2 nM.

B4: CID_326 (scFv)
scFv: B2 scFv with G24A, I34M, E57K, R174N
For the molecule B4, the EC50 in assay [3] was 6 nM.

B5: CID_329 (scFv)
scFv: B2 scFv with Y95F, R174N, S177P
As for B5, in assay [3], the EC50 came out at 8.6 nM.

B6: CID_328 (scFv)
scFv: B2 scFv with I34M, H54Q, Y95F, T97A, R174I
On to B6, for which the EC50 in assay [3] is 5.7 nM.

B7: CID_327 (scFv)
scFv: B2 scFv with I34M, N35G, H54Q, N149A, Y170H, R174N, S212A
As to B7, the EC50 in assay [3] was determined as 4.5 nM.

B8: CID_330 (scFv)
scFv: B2 scFv with F59Y, T97A, L154M, S173V, R174N, S177P
As to B8, the EC50 in assay [3] was determined as 17.7 nM.

B9: CID_325 (scFv)
scFv: B2 scFv with G24A, N35G, V151L, P165T, R174N, R176G
As for B9, the EC50 in assay [3] was determined as 2.9 nM.

B10: CID_436 (scFv)
scFv: DIQMTQSPILLSASVGDRVTITCRASQDVSTAVAWSQQRTNGSPRLLIYSASSLYSGVPSRFSGSRSGTDFTLTISSLQPEDIADYYCQQPTYTPPTFGAGTKVEIKEVQLVESGGGLVQPGGSLRLSCAASGFNIRDTYIHWVRQSPGKGLEWVADIDPDNGDTRYADSVKGRFTISADTSKNTAYLQMNSLRAEDTAIYYCSRDLADGYNAFDRWGQGTLVTVSS
For B10, the EC50 in assay [3] stood at 3.4 nM.

B11: CID_437 (scFv)
scFv: B10 scFv with T92P, Y140F, D206E, L207G, A208E, F214W, R216L
B11: the EC50 in assay [3] turned out to be 1.2 nM.

B12: CID_251 (scFv)
scFv: EVQLVQSGAEVKKPGSSVKVSCKASGDTFTSYSFNWVRQAPGQGLEWMGRIITILDDTEYAPHLQGRVTITADKSTSTVYLELRNLRSDDTAVYFCAGVYEGPNSEGSYDDYGFLKHWGQGTLVTVSSDIVMTQSPATLSVSPGERATLSCRASESVANDLAWYQQKPGQVPRLLIYGASTRATGVPARFSGSGSGAEFTLTISSLQSEDFAVYYCQQYANWPPRETFGQGTRLEIK
Turning to B12, in assay [3], the EC50 is 1 nM.

B13: BDG30.086 (antibody, human IgG1, kappa)
heavy: not shown
light: DIQMTQSPSSLSASVGDRVTITCRASQDISTAVAWSQQKPGKAPKLLIYPASSLYSGVPSRFSGSRSGTDFTLTISSLQPEDFATYYCQQHPYTPPTFGQGTKVEIKRTVAAPSVFIFPPSDEQLKSGTASVVCLLNNFYPREAKVQWKVDNALQSGNSQESVTEQDSKDSTYSLSSTLTLSKADYEKHKVYACEVTHQGLSSPVTKSFNRGEC
notes: Human IgG1; also called IgG of CID_262
Take B13: in assay [1], the EC50 turned out to be 8.1 nM. Further, in assay [4], the “Functional Agonism EC50 (nM), NFkB-SEAP reporter” value (“Functional Agonism EC50 (nM)” for short) was determined as 1.4 nM.

B14: BDG30.116 (antibody, human IgG1, kappa, L234A L235A)
heavy: not shown
light: B13 light
notes: Human IgG1(L234A/L235A); also called IgG of CID_262
For B14, in assay [1], the 50% effective concentration (EC50) was 5.1 nM. Further, the “Functional Agonism EC50 (nM)” value in assay [4] was 3 nM.

B15: BDG30.088 (antibody, human IgG1, kappa)
heavy: not shown
light: B13 light with I29V, S36Y, H91P, P92G
notes: Human IgG1; also called IgG of CID_266
For B15, the EC50 in assay [1] was 13.1 nM. Besides, the “Functional Agonism EC50 (nM)” value in assay [4] stood at 49 nM.

B16: BDG30.085 (antibody, human IgG1, kappa)
heavy: not shown
light: B13 light with P50S, H91P, P92S, Y93L
notes: Human IgG1; also called IgG of CID_261
As for B16, the EC50 in assay [1] turned out to be 4.3 nM. In addition, the “Functional Agonism EC50 (nM)” value in assay [4] worked out at 24.7 nM.

B17: BDG30.087 (antibody, human IgG1, kappa)
heavy: not shown
light: B13 light with I29V, H91P, P92T, Y93L
notes: Human IgG1; also called IgG of CID_264
Regarding B17, the EC50 in assay [1] was found to be 18.4 nM. For the same molecule, the “Functional Agonism EC50 (nM)” value in assay [4] was 3.9 nM.
